According to publication PMC10899400, “2′-19F labelling of ribose in RNAs: a tool to analyse RNA/protein interactions by NMR in physiological conditions”:

Molecular target: Sam68 QUA1-KH (UniProt Q07666 96-260)
Test: EMSA; 40 uM RNA, 10-200 uM protein; NMR buffer 20 mM NaHPO4 pH 6.5, 100 mM NaCl, 1 mM beta-mercaptoethanol, 50 mM L-Arg, 50 mM L-Glu; 19F NMR of free RNA at 303 K, with or without 40% HeLa nuclear extract; EMSA 14% PAGE in TBE pH 7.6, 4 C
Settings: protein: recombinant; tags: N-terminal His6-TEV (pLEICS-01), TEV-treated; chain copies: 2; single-stranded

Sam68 QUA1-KH, sequence (Q07666 96-260): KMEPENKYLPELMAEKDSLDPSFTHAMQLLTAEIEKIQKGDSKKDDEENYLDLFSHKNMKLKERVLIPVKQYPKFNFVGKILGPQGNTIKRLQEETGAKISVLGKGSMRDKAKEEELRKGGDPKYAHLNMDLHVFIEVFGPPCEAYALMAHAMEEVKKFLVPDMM

UUACAGGGUUUUAGACAAAAU (ssRNA) [unmodified RNA (SMN2 21-mer)]: binds.
